According to doi:10.64898/2025.12.09.693212:

Biological target: T1, yeast topo II (full-length) (Saccharomyces cerevisiae, UniProt P06786 1-1428)
T1 sequence: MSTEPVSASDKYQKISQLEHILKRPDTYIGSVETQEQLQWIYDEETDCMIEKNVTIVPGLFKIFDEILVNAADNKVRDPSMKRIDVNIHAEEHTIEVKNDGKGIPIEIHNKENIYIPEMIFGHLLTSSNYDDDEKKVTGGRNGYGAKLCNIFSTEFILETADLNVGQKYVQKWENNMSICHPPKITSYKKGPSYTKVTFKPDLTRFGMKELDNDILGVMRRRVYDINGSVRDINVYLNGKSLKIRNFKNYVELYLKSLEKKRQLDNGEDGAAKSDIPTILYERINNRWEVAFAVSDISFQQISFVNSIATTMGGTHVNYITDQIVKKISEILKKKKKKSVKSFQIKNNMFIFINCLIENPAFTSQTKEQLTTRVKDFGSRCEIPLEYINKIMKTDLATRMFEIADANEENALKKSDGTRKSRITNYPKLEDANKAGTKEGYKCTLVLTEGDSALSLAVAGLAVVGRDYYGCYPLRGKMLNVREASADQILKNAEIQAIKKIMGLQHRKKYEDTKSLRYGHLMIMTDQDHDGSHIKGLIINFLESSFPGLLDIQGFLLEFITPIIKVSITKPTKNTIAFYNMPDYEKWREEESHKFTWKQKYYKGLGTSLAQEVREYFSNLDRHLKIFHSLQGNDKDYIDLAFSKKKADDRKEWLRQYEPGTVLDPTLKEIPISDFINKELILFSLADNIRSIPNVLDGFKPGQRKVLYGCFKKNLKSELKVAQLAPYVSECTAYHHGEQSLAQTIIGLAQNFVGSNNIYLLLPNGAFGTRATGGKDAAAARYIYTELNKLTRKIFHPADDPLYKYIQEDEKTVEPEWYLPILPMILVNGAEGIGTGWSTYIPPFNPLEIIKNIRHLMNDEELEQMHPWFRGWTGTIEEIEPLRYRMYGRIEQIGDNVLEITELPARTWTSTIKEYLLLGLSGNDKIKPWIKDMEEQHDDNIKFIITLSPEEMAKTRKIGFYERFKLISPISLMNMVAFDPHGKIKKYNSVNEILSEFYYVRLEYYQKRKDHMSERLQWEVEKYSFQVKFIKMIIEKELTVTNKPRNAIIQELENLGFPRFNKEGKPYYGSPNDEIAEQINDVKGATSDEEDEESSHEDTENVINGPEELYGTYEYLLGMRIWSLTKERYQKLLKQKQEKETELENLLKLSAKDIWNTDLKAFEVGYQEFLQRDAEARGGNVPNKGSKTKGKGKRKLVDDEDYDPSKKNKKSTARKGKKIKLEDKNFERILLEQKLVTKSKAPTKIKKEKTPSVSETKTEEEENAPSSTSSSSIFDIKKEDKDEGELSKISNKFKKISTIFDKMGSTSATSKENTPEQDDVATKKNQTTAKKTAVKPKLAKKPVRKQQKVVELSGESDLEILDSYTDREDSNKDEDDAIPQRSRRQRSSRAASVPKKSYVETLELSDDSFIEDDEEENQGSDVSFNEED
Assay: EMSA

B1: 51 bp dsDNA (dsDNA)
DNA 1: TATTTTCTTGTTCTTTTACATCAACACAATGTGACCATTACCTGGTTATCA
DNA 2: TGATAACCAGGTAATGGTCACATTGTGTTGATGTAAAAGAACAAGAAAATA
**Q.** With B1 as the binder, how does the Kd read?
**A.** ~50 nM
